# Laboratory results reported in PMC9135631 (2022).
# Substitutions are numbered along the chain they refer to. Names may count otherwise.
# B1: soluble FLRT3 extracellular domain fused to the constant fraction of human IgG (FLRT3^ECD-Fc) (Fc fusion)
# chain: KSCPSVCRCDAGFIYCNDRFLTSIPTGIPEDATTLYLQNNQINNAGIPSDLKNLLKVERIYLYHNSLDEFPTNLPKYVKELHLQENNIRTITYDSLSKIPYLEELHLDDNSVSAVSIEEGAFRDSNYLRLLFLSRNHLSTIPWGLPRTIEELRLDDNRISTISSPSLQGLTSLKRLVLDGNLLNNHGLGDKVFFNLVNLTELSLVRNSLTAAPVNLPGTNLRKLYLQDNHINRVPPNAFSYLRQLYRLDMSNNNLSNLPQGIFDDLDNITQLILRNNPWYCGCKMKWVRDWLQSLPVKVNVRGLMCQAPEKVRGMAIKDLNAELFDCKDSGIVSTIQITTAIPNTVYPAQGQWPAPVTKQPDIKNPKLTKDHQTTGSPSRKTITITVKSVTSDTIHISWKLALPMTALRLSWLKLGHSPAFGSITETIVTGERSEYLVTALEPDSPYKVCMVPMETSNLYLFDETPVCIETETAPLRMYNPTTTLNREQEKEPYKNPNLP
# modifications: N-terminal HA/Flag epitopes left out; isoform not printed (Q9HAR2-2 chosen over Q9HAR2-4, both fit the variant numbering); signal peptide removed and autoproteolysis at the GPS expected in the cell
# B2: Latrophilin-3 ADHD-related variant R465S (Lphn3^R465S) (receptor)
# chain: MWPSQLLIFMMLLAPIIHAFSRAPIPMAVVRRELSCESYPIELRCPGTDVIMIESANYGRTDDKICDSDPAQMENIRCYLPDAYKIMSQRCNNRTQCAVVAGPDVFPDPCPGTYKYLEVQYECVPYKVEQKVFLCPGLLKGVYQSEHLFESDHQSGAWCKDPLQASDKIYYMPWTPYRTDTLTEYSSKDDFIAGRPTTTYKLPHRVDGTGFVVYDGALFFNKERTRNIVKFDLRTRIKSGEAIIANANYHDTSPYRWGGKSDIDLAVDENGLWVIYATEQNNGKIVISQLNPYTLRIEGTWDTAYDKRSASNAFMICGILYVVKSVYEDDDNEATGNKIDYIYNTDQSKDSLVDVPFPNSYQYIAAVDYNPRDNLLYVWNNYHVVKYSLDFGPLDSRSGQAHHGQVSYISPPIHLDSELERPSVKDISTTGPLGMGSTTTSTTLRTTTLSPGRSTTPSVSGRRNSSTSTPSPAVEVLDDMTTHLPSASSQIPALEESCEAVEAREIMWFKTRQGQIAKQPCPAGTIGVSTYLCLAPDGIWDPQGPDLSNCSSPWVNHITQKLKSGETAANIARELAEQTRNHLNAGDITYSVRAMDQLVGLLDVQLRNLTPGGKDSAARSLNKLQKRERSCRAYVQAMVETVNNLLQPQALNAWRDLTTSDQLRAATMLLHTVEESAFVLADNLLKTDIVRENTDNIKLEVARLSTEGNLEDLKFPENMGHGSTIQLSANTLKQNGRNGEIRVAFVLYNNLGPYLSTENASMKLGTEALSTNHSVIVNSPVITAAINKEFSNKVYLADPVVFTVKHIKQSEENFNPNCSFWSYSKRTMTGYWSTQGCRLLTTNKTHTTCSCNHLTNFAVLMAHVEVKHSDAVHDLLLDVITWVGILLSLVCLLICIFTFCFFRGLQSDRNTIHKNLCISLFVAELLFLIGINRTDQPIACAVFAALLHFFFLAAFTWMFLEGVQLYIMLVEVFESEHSRRKYFYLVGYGMPALIVAVSAAVDYRSYGTDKVCWLRLDTYFIWSFIGPATLIIMLNVIFLGIALYKMFHHTAILKPESGCLDNINYEDNRPFIKSWVIGAIALLCLLGLTWAFGLMYINESTVIMAYLFTIFNSLQGMFIFIFHCVLQKKVRKEYGKCLRTHCCSGKSTESSIGSGKTSGSRTPGRYSTGSQSRIRRMWNDTVRKQSESSFITGDINSSASLNREPYRETSMGVKLNIAYQIGASEQCQGYKCHGYSTTEW
# B3: Latrophilin-3 ADHD-related variant D615N (Lphn3^D615N) (receptor)
# chain: B2 chain with S465R, D615N
# B4: Latrophilin-3 wild type (Lphn3^HA,Flag) (receptor)
# chain: B2 chain with S465R
# B5: Latrophilin-3 ADHD-related variant A247S (Lphn3^A247S) (receptor)
# chain: B2 chain with A247S, S465R
# B6: Latrophilin-3 ADHD-related variant T783M (Lphn3^T783M) (receptor)
# chain: B2 chain with S465R, T783M
# Assays:
# [1] = biological target: B4
# [2] = biological target: 8xHis-tagged Teneurin-2 extracellular domain (Ten2^ECD-His) (UniProt Q9NT68 401-2774, HA/Flag epitopes left out; isoform assumed; signal peptide removed and GPS autoproteolysis expected)
# [3] = biological target: 8xHis-tagged Teneurin-2 extracellular domain (Ten2^ECD-His) (UniProt Q9NT68 401-2774, N-terminal HA/Flag epitopes left out; isoform not printed (Q9HAR2-2 chosen over Q9HAR2-4, both fit the variant numbering); signal peptide removed and autoproteolysis at the GPS expected in the cell)
Kd [2] [nM],Binder,further results
,B1,Kd [1]: 0.988 nM
1.06,B2,
0.896,B3,
,B4,Kd [3]: 0.69 nM
1.15,B5,
0.756,B6,
